Measured values as given in US20190169269.

Columns and labels:
[1] = biological target: T1, recombinant human tropoelastin (hTE) (Sigma-Aldrich), P15502
T1 chain: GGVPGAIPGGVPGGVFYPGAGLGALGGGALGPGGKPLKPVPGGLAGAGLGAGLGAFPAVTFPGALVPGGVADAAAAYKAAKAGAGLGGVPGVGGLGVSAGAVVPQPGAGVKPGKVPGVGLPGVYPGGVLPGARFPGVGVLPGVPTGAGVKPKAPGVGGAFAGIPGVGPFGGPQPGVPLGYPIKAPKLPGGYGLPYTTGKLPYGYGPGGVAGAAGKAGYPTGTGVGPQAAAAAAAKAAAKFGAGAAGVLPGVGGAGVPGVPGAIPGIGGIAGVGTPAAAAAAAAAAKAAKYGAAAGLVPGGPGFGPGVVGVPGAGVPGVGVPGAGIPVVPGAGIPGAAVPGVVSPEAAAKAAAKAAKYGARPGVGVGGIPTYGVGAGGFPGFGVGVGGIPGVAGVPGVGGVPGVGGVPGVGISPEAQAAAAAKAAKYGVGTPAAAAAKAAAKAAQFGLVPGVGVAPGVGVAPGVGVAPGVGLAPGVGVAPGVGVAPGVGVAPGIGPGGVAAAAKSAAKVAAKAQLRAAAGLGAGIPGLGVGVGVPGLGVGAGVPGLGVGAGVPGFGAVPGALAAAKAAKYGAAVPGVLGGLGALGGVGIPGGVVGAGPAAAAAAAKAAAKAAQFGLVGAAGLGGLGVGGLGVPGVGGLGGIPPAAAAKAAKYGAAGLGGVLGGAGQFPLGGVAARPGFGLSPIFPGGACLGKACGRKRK

[2] = biological target: T2, Elactiv′ polypeptide (polypeptide derived from tropoelastin, Cys-Flag-tagged)
T2 chain: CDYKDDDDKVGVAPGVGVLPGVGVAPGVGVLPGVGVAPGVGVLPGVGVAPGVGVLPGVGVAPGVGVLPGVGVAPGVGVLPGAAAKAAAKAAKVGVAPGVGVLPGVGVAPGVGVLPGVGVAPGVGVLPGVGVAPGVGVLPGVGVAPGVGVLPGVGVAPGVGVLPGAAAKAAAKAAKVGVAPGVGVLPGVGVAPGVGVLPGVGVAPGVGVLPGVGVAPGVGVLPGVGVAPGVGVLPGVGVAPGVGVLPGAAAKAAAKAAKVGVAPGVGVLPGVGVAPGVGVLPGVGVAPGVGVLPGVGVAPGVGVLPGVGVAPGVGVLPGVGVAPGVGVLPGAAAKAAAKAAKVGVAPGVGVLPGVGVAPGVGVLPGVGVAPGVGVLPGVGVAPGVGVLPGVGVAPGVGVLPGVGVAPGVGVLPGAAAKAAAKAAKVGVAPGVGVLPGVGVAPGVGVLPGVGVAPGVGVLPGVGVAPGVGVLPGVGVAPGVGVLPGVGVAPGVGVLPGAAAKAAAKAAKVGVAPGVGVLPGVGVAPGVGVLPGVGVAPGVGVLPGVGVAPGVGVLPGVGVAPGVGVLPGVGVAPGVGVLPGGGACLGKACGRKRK

B1: recombinant human MMP-12 (protein)
chain: GPVWRKHYITYRINNYTPDMNREDVDYAIRKAFQVWSNVTPLKFSKINTGMADILVVFARGAHGDFHAFDGKGGILAHAFGPGSGIGGDAHFDEDEFWTTHSGGTNLFLTAVHEIGHSLGLGHSSDPKAVMFPTYKYVDINTFRLSADDIRGIQSLYGDPKENQRLPNPDNSEPALCDPNLSFDAVTTVGNKIFFFKDRFFWLKVSERPKTSVNLISSLWPTLPSGIEAAYEIEARNQVFLFKDDKYWLISNLRPEPNYPKSIHSFGFPNFVKKIDAAVFNPRFYRTYFFVDNQYWRYDERRQMMDPGYPKLITKNFQGIGPKIDAVFYSKNKYYYFFQGSNQFEYDFLLQRITKTLKSNSWFGC
- kinetics of degradation by rhMMP-12, Western blot [1]: Elactiv′ is progressively degraded by MMP-12, but to a lesser extent than human tropoelastin
- kinetics of degradation by rhMMP-12, Western blot [2]: Elactiv′ is progressively degraded by MMP-12, but to a lesser extent than human tropoelastin
